What was measured:
[1] = target: HLA-A2/TyrD-S1 on T2 cells (human); test: flow cytometry, T2 cells loaded with TyrD S1 [..], 10 µg/ml
[2] = target: HLA-A2 on cells (tumor cell lines, normal primary cells, PBMCs) (human); test: flow cytometry, renal epithelial cells 4120, 10 µg/ml
[3] = target: HLA-A2 on HLA-A2+ cells that do not express WT1 (tumor cell lines, normal primary cells); test: flow cytometry on SKMEL-5 melanoma cells (WT1 mRNA -)
[4] = target: HLA-A2 on cells (tumor cell lines, normal primary cells, PBMCs) (human); test: flow cytometry, Loucy cells
[5] = target: HLA-A2/TyrD-S11 on T2 cells (human); test: flow cytometry, T2 cells loaded with TyrD S11 [..], 10 µg/ml
[6] = target: HLA-A2 on cells (tumor cell lines, normal primary cells, PBMCs) (human); test: flow cytometry, endothelial cells HUE-1, 10 µg/ml
[7] = target: HLA-A2 on HLA-A2+ cells that do not express WT1 (tumor cell lines, normal primary cells); test: flow cytometry on 501A melanoma cells (WT1 mRNA -)
[8] = target: HLA-A2 on other WT1 negative HLA-A2+ cells (other than 501, A498 and SKMEL; members not named); test: flow cytometry on JVM-2 cells (WT1 mRNA -)
[9] = target: HLA-A2/WT1 126-134 complex on T2 cells (human); test: flow cytometry, T2 cells loaded with WT1 [..], 10 µg/ml
[10] = target: HLA-A2/TyrD-S3 on T2 cells (human); test: flow cytometry, T2 cells loaded with TyrD S3 [..], 10 µg/ml
[11] = target: HLA-A2/TyrD-S2 on T2 cells (human); test: flow cytometry, T2 cells loaded with TyrD S2 [..], 10 µg/ml
[12] = target: HLA-A2/Tyrosinase369-377 complex on cells (human); test: flow cytometry, T2 cells loaded with TyrD [..], 10 µg/ml
[13] = target: HLA-A2/TyrD-S4 on T2 cells (human); test: flow cytometry, T2 cells loaded with TyrD S4 [..], 10 µg/ml
[14] = target: HLA-A2/MART1(26) on T2 cells (human); test: flow cytometry, T2 cells loaded with MART1 peptide
[15] = target: HLA-A2 on cells (tumor cell lines, normal primary cells, PBMCs) (human); test: flow cytometry, A498 cells, 10 µg/ml
[16] = target: HLA-A2/Tyrosinase369-377 complex on cells (human); test: flow cytometry, T2 cells loaded with TyrD peptide ([..] printed under the label), 10 µg/ml
[17] = target: HLA-A2/TyrD-S18 on T2 cells (human); test: flow cytometry, T2 cells loaded with TyrD-S18 [..], 10 µg/ml
[18] = target: HLA-A2 on cells (tumor cell lines, normal primary cells, PBMCs) (human); test: flow cytometry, fibroblasts Fib, 10 µg/ml
[19] = target: HLA-A2 on cells (tumor cell lines, normal primary cells, PBMCs) (human); test: flow cytometry, SK-Mel5 melanoma cells
[20] = target: HLA-A2 on cells (tumor cell lines, normal primary cells, PBMCs) (human); test: flow cytometry, H2228 cells, 10 µg/ml
[21] = target: HLA-A2 on HLA-A2+/WT1+ BV173 cells (WT1 mRNA positive; WT1 126-134 peptide not detected by mass spectrometry of eluted HLA peptides); test: flow cytometry on BV173 cells (WT1 mRNA +)
[22] = target: HLA-A2/TyrD-S8 on T2 cells (human); test: flow cytometry, T2 cells loaded with TyrD S8 [..], 10 µg/ml
[23] = target: HLA-A2/TyrN on T2 cells (human); test: flow cytometry, T2 cells loaded with TyrN [..], 10 µg/ml
[24] = target: HLA-A2 on cells (tumor cell lines, normal primary cells, PBMCs) (human); test: flow cytometry, IM-9 cells, 10 µg/ml
[25] = target: HLA-A2/GPLD1 on T2 cells (human); test: flow cytometry, T2 cells loaded with GPLD1 [..], 10 µg/ml
[26] = target: HLA-A2/209M on T2 cells (human); test: flow cytometry, T2 cells loaded with 209M peptide
[27] = target: HLA-A2/TyrD-S21 on T2 cells (human); test: flow cytometry, T2 cells loaded with TyrD-S21 [..], 10 µg/ml
[28] = target: HLA-A2/Tyrosinase369-377 complex on cells (human); test: flow cytometry, T2 cells loaded with TYR peptide
[29] = target: HLA-A2/PAP 112-120 complex on T2 cells (human); test: flow cytometry, T2 cells loaded with PAP112 [..], 10 µg/ml
[30] = target: HLA-A2/PAP 112-120 complex on T2 cells (human); test: flow cytometry, T2 cells loaded with 10^-4 M peptide
[31] = target: HLA-A2/MAGE-A4 230-239 complex on cells (human); test: as above
[32] = target: HLA-A2/MAGE-A9 223-231 complex on T2 cells (human); test: as above
[33] = target: HLA-A2/TyrD-S20 on T2 cells (human); test: flow cytometry, peptide-loaded T2 cells (10^-5 M), PE anti-mouse IgG
[34] = target: HLA-A2/TyrD-S21 on T2 cells (human); test: as above
[35] = target: HLA-A2/TyrD-S22 on T2 cells (human); test: as above
[36] = target: HLA-A2/TyrD-S23 on T2 cells (human); test: as above
[37] = target: HLA-A2/ARHGAP on T2 cells (human); test: flow cytometry, T2 cells loaded with ARHGAP peptide
[38] = target: HLA-A2 on cells (tumor cell lines, normal primary cells, PBMCs) (human); test: flow cytometry, 624.38 melanoma cells, 10 µg/ml
[39] = target: HLA-A2 on cells (tumor cell lines, normal primary cells, PBMCs) (human); test: flow cytometry, SW620 cells

Substance BB7.2 (antibody) has an MFI relative to background [1] of 596, an MFI [2] of 889 and an MFI [3] of 170. It also gave a GeoMean [4] of 734, an MFI relative to background [5] of 473 and an MFI [6] of 133. For the same substance, the MFI [7] was 229, the MFI [8] was 238 and the MFI relative to background [9] was 1420. The MFI relative to background [10] was 430, the MFI relative to background [11] was 929 and the MFI relative to background [12] was 561. For the same substance, the MFI relative to background [13] was 543, the MFI [14] was 2500 and the MFI [15] was 170. It also gave an MFI relative to background [16] of 848, an MFI relative to background [17] of 838 and an MFI [18] of 481. The MFI [19] was 76, the MFI [20] was 210 and the MFI [21] was 962. For the same substance, the MFI relative to background [22] was 539, the MFI relative to background [23] was 483 and the MFI [24] was 457. For the same substance, the MFI relative to background [25] was 364, the MFI [26] was 2870 and the MFI relative to background [27] was 654. It also gave an MFI [28] of 2200, an MFI relative to background [29] of 1170 and an MFI [30] of 540. For the same substance, the MFI [31] was 492, the MFI [32] was 486 and the MFI relative to background [33] was 445. For the same substance, the MFI relative to background [34] was 654, the MFI relative to background [35] was 464 and the MFI relative to background [36] was 443. The MFI [37] was 2580, the MFI [38] was 311 and the GeoMean [39] was 369.

Reference: US20180171024A1
